Article PMC10192418, “High-affinity peptides developed against calprotectin and their application as synthetic ligands in diagnostic assays” (Nature Communications, 2023)

B1: linear peptide 3 [modified: 5(6)-carboxyfluorescein on the N-terminus; 5(6)-carboxyfluorescein on the N-terminus] / B-RCAL (BÜHLMANN recombinant calprotectin; His6-linker-S100A9-linker-S100A8) [human] (parent)
chain 1: RSPESVAFPMFQSHWYSG
chain 2: MTCKMSQLERNIETIINTFHQYSVKLGHPDTLNQGEFKELVRKDLQNFLKKENKNEKVIEHIMEDLDTNADKQLSFEEFIMLMARLTWASHEKMHEGDEGPGHHHKPGLGEGTPLEVLFQGPMLTELEKALNSIIDVYHKYSLIKGNFHAVYRDDLKKLLETECPQYIRKKGADVWFKELDINTDGAVNFQEFLILVIKMGVAAHKKSHEESHKE

Variants of: B1
Test: fluorescence polarisation
Details: with B-RCAL (BÜHLMANN recombinant calprotectin; His6-linker-S100A9-linker-S100A8) [human]; one measurement

Q: With chain 1 RSPESAAFPMFQSHWYSG as the variant, how does the Kd read?
A: 39 nM

Q: How did the Kd turn out when chain 1 ASPESVAFPMFQSHWYSG was run?
A: 32 nM

Q: chain 1 RSPESVGFPMFQSHWYSG was tested. Which Kd did it give?
A: 29 nM

Q: Which Kd does the source give for chain 1 RSAESVAFPMFQSHWYSG here?
A: 28 nM

Q: With chain 1 RSPESVAFPMFASHWYSG as the variant, how does the Kd read?
A: 27 nM
